Article PMC10704371

Target: T1, N-terminal DNA-binding domain (2-241) of S. pombe Fep1, 6xHis-tagged (S. pombe) (UniProt Q10134)
T1 sequence: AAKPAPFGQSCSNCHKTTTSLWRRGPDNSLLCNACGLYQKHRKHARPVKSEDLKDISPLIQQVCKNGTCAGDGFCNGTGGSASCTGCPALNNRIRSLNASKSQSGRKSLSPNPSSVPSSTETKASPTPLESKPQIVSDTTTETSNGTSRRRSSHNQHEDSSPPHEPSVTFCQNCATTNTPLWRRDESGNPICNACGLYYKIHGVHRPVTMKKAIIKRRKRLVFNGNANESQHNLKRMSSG

Kex of [2Fe-2S] cluster transfer from [2Fe-2S],Zn-Fep1-DBD to apo-Grx4 (CD-monitored titration, 5 mM GSH): 5.3
Kex of [2Fe-2S] cluster transfer from [2Fe-2S],Zn-Fep1-DBD to apo-Grx4 added as a 1:1 mixture with apo-Fra2 (CD-monitored titration, 5 mM GSH): 36.1
B1: Schizosaccharomyces pombe monothiol glutaredoxin Grx4, full length, 6xHis-tagged (natural protein)
chain: MSVEITFVEQFQEILQNGKEQIILLNFYAPWAAPCKQMNQVFDQFAKDTKNAVFLKIEAEKFSDIAESFDVNAVPLFVLIHGAKVLARISGANPQKLKAAIDEYIQPLISQISSTNASVETQVNSVQTTNTTSNTSKAPNGLDSELNERLSTLTNAHNVMLFLKGTPSEPACGFSRKLVGLLREQNVQYGFFNILADDSVRQGLKVFSDWPTFPQLYIKGEFVGGLDIVSEMIENGELQEMLPN
